Measured values published in US20210079343, “ENDOTHELIAL CELL FACTORS AND METHODS THEREOF” (THE CHILDREN'S MEDICAL CENTER CORPORATION, published 2021).

T1: NR2F2 (COUP-TFII) (Mus musculus, UniProt P43135 P43135:1-414)
T1 sequence: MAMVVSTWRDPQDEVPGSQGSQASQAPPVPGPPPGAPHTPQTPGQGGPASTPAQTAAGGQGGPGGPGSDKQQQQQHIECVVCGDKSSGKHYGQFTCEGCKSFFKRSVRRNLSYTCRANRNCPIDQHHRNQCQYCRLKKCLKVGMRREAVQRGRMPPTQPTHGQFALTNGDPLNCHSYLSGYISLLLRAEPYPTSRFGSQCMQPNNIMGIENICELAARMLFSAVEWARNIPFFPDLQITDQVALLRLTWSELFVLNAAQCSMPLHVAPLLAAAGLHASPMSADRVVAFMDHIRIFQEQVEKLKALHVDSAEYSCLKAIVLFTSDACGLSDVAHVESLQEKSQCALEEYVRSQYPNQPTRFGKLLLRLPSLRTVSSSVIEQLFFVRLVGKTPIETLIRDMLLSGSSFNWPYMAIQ


Columns and labels:
NR2F2 (COUP-TFII) [1] = target: T1, NR2F2 (COUP-TFII); experiment: EMSA; 4 C, 20 mM Tris pH 8.0, 10 mM KCl, 20% glycerol; super-shifted by anti-NR2F2; outcompeted by unlabeled wild-type probe; conditions: tags: GST (pGEX2TK, E. coli BL21)
Text: (§1) In each case, disruption of the Ets, SoxF or NHR motifs led to a significant reduction or complete loss of GFP expression in CHT ECs (see e.g., FIG. 3F). In control constructs where mutations were targeted to intervening sequences between the Ets, SoxF and NHR motifs, GFP expression was unperturbed (see e.g., FIG. 3F). Studies of arterial-venous specification in zebrafish have shown that the NHR Nr2f2, also known as COUP-TFII, promotes venous endothelial cell fate (see e.g., Aranguren et al. Transcription factor COUP-TFII is indispensable for venous and lymphatic development in zebrafish and Xenopus laevis. Biochemical and biophysical research communications 410, 121-126, 2011). To test whether Nr2f2 could directly bind the enhancer sequences, an in vitro gel electrophoretic mobility shift assay was performed. Incubation of murine NR2F2-GST protein with labeled probe from either the 125 bp mrc1a or 158 bp sele zebrafish enhancers led to DNA:protein complexes that were super-shifted upon addition of an NR2F2 antibody and could be outcompeted by an unlabeled competitor probe (see e.g., FIG. 10A-FIG. 10E).
(§2) The Nr2f2 fragment was cloned into the pGEX2TK™ vector to generate GST-tagged Nr2f2 and fidelity was verified by sequencing. The pGEX2TK-Nr2f2 protein plasmid was transformed into E. coli BL21 competent cells. Proteins were expressed and purified, and purified proteins were quantified against BSA. EMSAs were performed. Probes were generated by annealing 100 pmol of sense and antisense oligonucleotides, and 1-2 pmol of probe was used in each reaction. Gel shift reactions were conducted at 4° C. in 20% glycerol, 20 mM Tris (pH 8.0), 10 mM KCl, 1 mM DTT, 12.5 ng poly dI/C, 6.25 pmol of random, single-stranded oligonucleotides, BSA and the probe in the amount specified above. Samples involving the Nr2f2 protein were loaded on a 6% gel to resolve protein-DNA complexes. In reactions with cold competitors, 20x unlabeled probes were included in the reactions. Anti-NR2F2 antibody (R&D Biosystems™; cat # PP-H7147-00) was at the same amount of the Nr2f2 protein to obtain super-shifts.

NR2F2 (COUP-TFII) [2] = target: T1, NR2F2 (COUP-TFII); experiment: competition; 20x unlabeled mutant unable to outcompete wild-type probe in EMSA; conditions: tags: GST (pGEX2TK, E. coli BL21)
Text: as §1, §2

Row | Binder | binding result (NR2F2 (COUP-TFII) [1]) | binding result (NR2F2 (COUP-TFII) [2])
1 | sele wild-type (dsDNA) DNA 1: GTAATGCCCCCTGTGACCCATATTGTCTCGCTCTTTCCTTTATA DNA 2: TATAAAGGAAAGAGCGAGACAATATGGGTCACAGGGGGCATTAC | binds | –
2 | sele mutation (dsDNA) DNA 1: GTAATGCCCCCTGATTAACATATTGTCTCGCTCTTTCCTTTATA DNA 2: TATAAAGGAAAGAGCGAGACAATATGTTAATCAGGGGGCATTAC | – | no binding
3 | mrc1a site 2 mutation (dsDNA) DNA 1: TTCATTTCCTTTTTGCATTAATTTATTTTC DNA 2: GAAAATAAATTAATGCAAAAAGGAAATGAA | – | no binding
4 | mrc1a site 1 wild-type (dsDNA) DNA 1: TTTATGAAGCTTGTACCTTTCATTTCCTTTTTG DNA 2: CAAAAAGGAAATGAAAGGTACAAGCTTCATAAA | binds | –
5 | mrc1a site 1 mutation (dsDNA) DNA 1: TTTAATTAGCAGATTTAATTTCATTTCCTTTTTG DNA 2: CAAAAAGGAAATGAAATTAAATCTGCTAATTAAA | – | no binding
6 | mrc1a site 2 wild-type (dsDNA) DNA 1: TTCATTTCCTTTTTGCTGAGCTTTATTTTC DNA 2: GAAAATAAAGCTCAGCAAAAAGGAAATGAA | binds | –
